Experimental data reported in patent publication US10047131B2, “Peptides and combination of peptides for use in immunotherapy against ovarian cancer and other cancers” (immatics biotechnologies GmbH, priority 2015, dated 2018).

These substances were tested against HLA-A*02:01 (Homo sapiens, UniProt P04439, D140Y/D185E/D98H/E176V/E277Q/G131W/G231S/I119V/I121R/I166T/I218V/L300P/L318F/N151K/N90K/P208A/P217A/Q86G/Q94H/R138H/R169H/T345S) (assay: MHC binding assay (UV-ligand exchange, ELISA of exchange yield)). Settings: binding to HLA-A*02:01, UV-ligand exchange.
Procedure, shortened: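 Peptide–MHC complexes made by UV-ligand exchange, where a UV-cleavable peptide is replaced by the test peptide. Exchange yield measured by ELISA: complexes diluted 100-fold on streptavidin-coated plates, stabilized complexes detected with HRP anti-β2m, TMB read at 450 nm.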
“466 (VLIANLEKL; listed as Homo sapiens) [compound 466]” was tested, and the “Peptide exchange (MHC class I binding score, peptide exchange yield)” value (shortened to “Peptide exchange”) was ““++++” (≥75% = ++++)”.
“542 (RVWDISTVSSV; listed as Homo sapiens) [compound 542]” was tested, and the “Peptide exchange” value was ““+++” (≥50 = +++)”.
“180 (FQIDPHSGLVTV; listed as Homo sapiens) [compound 180]” was tested, and the “Peptide exchange” value was ““++” (≥20% = ++)”.
“512 (SLSEIVPCL; listed as Homo sapiens) [compound 512]” was tested, and the “Peptide exchange” value was ““+++” (≥50 = +++)”.
For “225 (SLLKVLPAL; listed as Homo sapiens) [compound 225]”, the “Peptide exchange” value was ““+++” (≥50 = +++)”.
In the case of “635 (SLDSTLHAV; listed as Homo sapiens) [compound 635]”, the “Peptide exchange” value is reported as ““+++” (≥50 = +++)”.
For “304 (MTLGQIYYL; listed as Homo sapiens) [compound 304]”, the “Peptide exchange” value was ““+++” (≥50 = +++)”.
“176 (YLMEGSYNKVFL; listed as Homo sapiens) [compound 176]” was tested, and the “Peptide exchange” value was ““++” (≥20% = ++)”.
For “575 (YLISQVEGHQV; listed as Homo sapiens) [compound 575]”, the “Peptide exchange” value was ““+++” (≥50 = +++)”.
With “459 (ALITEVVRL; listed as Homo sapiens) [compound 459]” the “Peptide exchange” value was ““++” (≥20% = ++)”.
In the case of “3 (SLASKLTTL; listed as Homo sapiens) [compound 3]”, the “Peptide exchange” value is reported as ““++++” (≥75% = ++++)”.
In the case of “218 (SALEELVNV; listed as Homo sapiens) [compound 218]”, the “Peptide exchange” value is reported as ““++” (≥20% = ++)”.
With “587 (VMNDRLYAI; listed as Homo sapiens) [compound 587]” the “Peptide exchange” value was ““+++” (≥50 = +++)”.
In the case of “582 (TLCDVILMV; listed as Homo sapiens) [compound 582]”, the “Peptide exchange” value is reported as ““+++” (≥50 = +++)”.
“500 (SLMEDQVLQL; listed as Homo sapiens) [compound 500]” was tested, and the “Peptide exchange” value was ““+++” (≥50 = +++)”.
In the case of “67 (TLLAEALVTV; listed as Homo sapiens) [compound 67]”, the “Peptide exchange” value is reported as ““+++” (≥50 = +++)”.
“309 (GLFDGVPTTA; listed as Homo sapiens) [compound 309]” was tested, and the “Peptide exchange” value was ““+++” (≥50 = +++)”.
With “496 (FLVEKQPPQV; listed as Homo sapiens) [compound 496]” the “Peptide exchange” value was ““+++” (≥50 = +++)”.
For “400 (SLLTEQDLWTV; listed as Homo sapiens) [compound 400]”, the “Peptide exchange” value was ““++” (≥20% = ++)”.
With “312 (IISDLTIAL; listed as Homo sapiens) [compound 312]” the “Peptide exchange” value was ““+++” (≥50 = +++)”.
“430 (HLYSSIEHLTT; listed as Homo sapiens) [compound 430]” was tested, and the “Peptide exchange” value was ““+++” (≥50 = +++)”.
With “617 (ALMYESEKVGV; listed as Homo sapiens) [compound 617]” the “Peptide exchange” value was ““+++” (≥50 = +++)”.
For “275 (YLVYILNEL; listed as Homo sapiens) [compound 275]”, the “Peptide exchange” value was ““++” (≥20% = ++)”.
For “237 (ALLEASGTLLL; listed as Homo sapiens) [compound 237]”, the “Peptide exchange” value was ““++++” (≥75% = ++++)”.
For “619 (ALQDRVPLA; listed as Homo sapiens) [compound 619]”, the “Peptide exchange” value was ““+++” (≥50 = +++)”.
In the case of “370 (SLLQDLVSV; listed as Homo sapiens) [compound 370]”, the “Peptide exchange” value is reported as ““+++” (≥50 = +++)”.
“70 (GLLDYPVGV; listed as Homo sapiens) [compound 70]” was tested, and the “Peptide exchange” value was ““+++” (≥50 = +++)”.
“325 (FIMPATVADATAV; listed as Homo sapiens) [compound 325]” was tested, and the “Peptide exchange” value was ““+++” (≥50 = +++)”.
In the case of “347 (SLFKHDPAAWEA; listed as Homo sapiens) [compound 347]”, the “Peptide exchange” value is reported as ““++++” (≥75% = ++++)”.
In the case of “44 (ILDPISSGFLL; listed as Homo sapiens) [compound 44]”, the “Peptide exchange” value is reported as ““++” (≥20% = ++)”.
In the case of “190 (FLSSLTETI; listed as Homo sapiens) [compound 190]”, the “Peptide exchange” value is reported as ““+++” (≥50 = +++)”.
For “401 (ILLDDTGLAYI; listed as Homo sapiens) [compound 401]”, the “Peptide exchange” value was ““+++” (≥50 = +++)”.
In the case of “54 (SLLEQGKEPWMV; listed as Homo sapiens) [compound 54]”, the “Peptide exchange” value is reported as ““+++” (≥50 = +++)”.
For “14 (AAYGGLNEKSFV; listed as Homo sapiens) [compound 14]”, the “Peptide exchange” value was ““+++” (≥50 = +++)”.
For “318 (GLINTGVLSV; listed as Homo sapiens) [compound 318]”, the “Peptide exchange” value was ““++” (≥20% = ++)”.
With “528 (SVAEGRALMSV; listed as Homo sapiens) [compound 528]” the “Peptide exchange” value was ““+++” (≥50 = +++)”.
“263 (LLVSNLDFGV; listed as Homo sapiens) [compound 263]” was tested, and the “Peptide exchange” value was ““+++” (≥50 = +++)”.
In the case of “97 (SLINGSFLV; listed as Homo sapiens) [compound 97]”, the “Peptide exchange” value is reported as ““+++” (≥50 = +++)”.
With “461 (VMFRTPLASV; listed as Homo sapiens) [compound 461]” the “Peptide exchange” value was ““++” (≥20% = ++)”.
With “561 (YLQLTQSEL; listed as Homo sapiens) [compound 561]” the “Peptide exchange” value was ““+++” (≥50 = +++)”.
“452 (ILLEHGADPNL; listed as Homo sapiens) [compound 452]” was tested, and the “Peptide exchange” value was ““+++” (≥50 = +++)”.
For “222 (NLIENVQRL; listed as Homo sapiens) [compound 222]”, the “Peptide exchange” value was ““++” (≥20% = ++)”.
For “18 (YLVAKLVEV; listed as Homo sapiens) [compound 18]”, the “Peptide exchange” value was ““++” (≥20% = ++)”.
With “127 (KIGDEPPKV; listed as Homo sapiens) [compound 127]” the “Peptide exchange” value was ““++” (≥20% = ++)”.
With “211 (LLWPGAALL; listed as Homo sapiens) [compound 211]” the “Peptide exchange” value was ““++” (≥20% = ++)”.
With “592 (RLLSAAENFL; listed as Homo sapiens) [compound 592]” the “Peptide exchange” value was ““+++” (≥50 = +++)”.
In the case of “92 (YLIPFTGIVGL; listed as Homo sapiens) [compound 92]”, the “Peptide exchange” value is reported as ““++” (≥20% = ++)”.
“73 (NIFDLQIYV; listed as Homo sapiens) [compound 73]” was tested, and the “Peptide exchange” value was ““+++” (≥50 = +++)”.
“235 (YLNDLHEVLL; listed as Homo sapiens) [compound 235]” was tested, and the “Peptide exchange” value was ““++++” (≥75% = ++++)”.
With “123 (NLWDLTDASVV; listed as Homo sapiens) [compound 123]” the “Peptide exchange” value was ““+++” (≥50 = +++)”.
For “613 (RLLPPGAVVAV; listed as Homo sapiens) [compound 613]”, the “Peptide exchange” value was ““+++” (≥50 = +++)”.
With “138 (YQYPRAILSV; listed as Homo sapiens) [compound 138]” the “Peptide exchange” value was ““+++” (≥50 = +++)”.
For “4 (GIMEHITKI; listed as Homo sapiens) [compound 4]”, the “Peptide exchange” value was ““++++” (≥75% = ++++)”.
For “9 (GAAKDLPGV; listed as Homo sapiens) [compound 9]”, the “Peptide exchange” value was ““++” (≥20% = ++)”.
With “45 (SLWQDIPDV; listed as Homo sapiens) [compound 45]” the “Peptide exchange” value was ““+++” (≥50 = +++)”.
“451 (LLLLDTVTMQV; listed as Homo sapiens) [compound 451]” was tested, and the “Peptide exchange” value was ““++” (≥20% = ++)”.
With “281 (ILRESTEEL; listed as Homo sapiens) [compound 281]” the “Peptide exchange” value was ““+++” (≥50 = +++)”.
For “74 (ALLDPEVLSIFV; listed as Homo sapiens) [compound 74]”, the “Peptide exchange” value was ““+++” (≥50 = +++)”.
“120 (ALLGIPLTLV; listed as Homo sapiens) [compound 120]” was tested, and the “Peptide exchange” value was ““+++” (≥50 = +++)”.
For “124 (ALYETELADA; listed as Homo sapiens) [compound 124]”, the “Peptide exchange” value was ““++” (≥20% = ++)”.
In the case of “1 (SLMEPPAVLLL; listed as Homo sapiens) [compound 1]”, the “Peptide exchange” value is reported as ““+++” (≥50 = +++)”.
In the case of “82 (FLSSVTYNL; listed as Homo sapiens) [compound 82]”, the “Peptide exchange” value is reported as ““+++” (≥50 = +++)”.
With “521 (MLLTKLPTI; listed as Homo sapiens) [compound 521]” the “Peptide exchange” value was ““+++” (≥50 = +++)”.
“153 (FLIANVLYL; listed as Homo sapiens) [compound 153]” was tested, and the “Peptide exchange” value was ““+” (≥10% = +)”.
For “242 (AIAYILQGV; listed as Homo sapiens) [compound 242]”, the “Peptide exchange” value was ““++” (≥20% = ++)”.
With “385 (SLLEQGLVEA; listed as Homo sapiens) [compound 385]” the “Peptide exchange” value was ““++” (≥20% = ++)”.
“409 (LLDAMNYHL; listed as Homo sapiens) [compound 409]” was tested, and the “Peptide exchange” value was ““++” (≥20% = ++)”.
